From paper PMC4015496 (Genes & Development, 2014)

T1: CTCFwt, full length, GST tag removed (human), P49711
T1 chain: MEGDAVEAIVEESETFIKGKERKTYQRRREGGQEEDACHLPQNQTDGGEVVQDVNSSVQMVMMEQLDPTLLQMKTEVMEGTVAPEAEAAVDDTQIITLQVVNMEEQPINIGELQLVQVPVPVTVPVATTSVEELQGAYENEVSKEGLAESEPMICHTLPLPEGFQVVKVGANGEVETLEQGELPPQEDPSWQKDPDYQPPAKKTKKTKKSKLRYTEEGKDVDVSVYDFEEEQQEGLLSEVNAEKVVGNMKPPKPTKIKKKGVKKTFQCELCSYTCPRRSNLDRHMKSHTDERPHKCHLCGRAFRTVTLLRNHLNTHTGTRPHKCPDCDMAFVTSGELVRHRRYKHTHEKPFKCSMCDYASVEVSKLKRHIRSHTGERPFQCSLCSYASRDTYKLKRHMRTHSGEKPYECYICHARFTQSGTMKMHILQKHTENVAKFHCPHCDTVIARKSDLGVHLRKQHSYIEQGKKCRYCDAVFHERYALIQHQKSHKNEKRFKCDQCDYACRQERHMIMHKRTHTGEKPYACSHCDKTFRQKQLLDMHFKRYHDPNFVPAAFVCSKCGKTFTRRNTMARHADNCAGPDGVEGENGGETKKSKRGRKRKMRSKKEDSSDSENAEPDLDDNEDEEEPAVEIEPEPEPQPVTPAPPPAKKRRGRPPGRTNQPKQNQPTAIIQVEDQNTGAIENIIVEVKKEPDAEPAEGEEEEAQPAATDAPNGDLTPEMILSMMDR


What was measured:
[1] = biological target: T1, CTCFwt, full length, GST tag removed …; assay: SEC; conditions: remark: other sources report otherwise
SEC = biological target: the molecule itself; assay: SEC

Binder	stoichiometry N [1]	binding result (SEC)
CTCFwt, full length, GST tag removed, P49711 1-727 (natural protein) MEGDAVEAIVEESETFIKGKERKTYQRRREGGQEEDACHLPQNQTDGGEVVQDVNSSVQMVMMEQLDPTLLQMKTEVMEGTVAPEAEAAVDDTQIITLQVVNMEEQPINIGELQLVQVPVPVTVPVATTSVEELQGAYENEVSKEGLAESEPMICHTLPLPEGFQVVKVGANGEVETLEQGELPPQEDPSWQKDPDYQPPAKKTKKTKKSKLRYTEEGKDVDVSVYDFEEEQQEGLLSEVNAEKVVGNMKPPKPTKIKKKGVKKTFQCELCSYTCPRRSNLDRHMKSHTDERPHKCHLCGRAFRTVTLLRNHLNTHTGTRPHKCPDCDMAFVTSGELVRHRRYKHTHEKPFKCSMCDYASVEVSKLKRHIRSHTGERPFQCSLCSYASRDTYKLKRHMRTHSGEKPYECYICHARFTQSGTMKMHILQKHTENVAKFHCPHCDTVIARKSDLGVHLRKQHSYIEQGKKCRYCDAVFHERYALIQHQKSHKNEKRFKCDQCDYACRQERHMIMHKRTHTGEKPYACSHCDKTFRQKQLLDMHFKRYHDPNFVPAAFVCSKCGKTFTRRNTMARHADNCAGPDGVEGENGGETKKSKRGRKRKMRSKKEDSSDSENAEPDLDDNEDEEEPAVEIEPEPEPQPVTPAPPPAKKRRGRPPGRTNQPKQNQPTAIIQVEDQNTGAIENIIVEVKKEPDAEPAEGEEEEAQPAATDAPNGDLTPEMILSMMDR	3	–
RBR fragment of CTCF (purified, used in gel filtration) (domain or fragment, human, UniProt P49711 520-727, looked up) EKPYACSHCDKTFRQKQLLDMHFKRYHDPNFVPAAFVCSKCGKTFTRRNTMARHADNCAGPDGVEGENGGETKKSKRGRKRKMRSKKEDSSDSENAEPDLDDNEDEEEPAVEIEPEPEPQPVTPAPPPAKKRRGRPPGRTNQPKQNQPTAIIQVEDQNTGAIENIIVEVKKEPDAEPAEGEEEEAQPAATDAPNGDLTPEMILSMMDR	–	binds
